Laboratory results as given in PMC9654539, “Alkaline Stress Causes Changes in Polyamine Biosynthesis in Thermus thermophilus” (International Journal of Molecular Sciences, 2022).

Substrate: N=C(N)NCCCCN
Experiment: purified protein
Type: biochemical, Thermus thermophilus
Conditions: pH 10.0, 75 °C, 50 mM Tris-HCl, 10 μM MnCl2, 0.005–1 mM agmatine

B1: TtSpeB (aminopropylagmatine ureohydrolase) (Thermus thermophilus HB8) (protein)
chain: MRLVFGEKDTPYEEARVVVLPVPYDLSLSFLPGARRGPEAILLASRELEPFLLELGAAPEEVGIHAAEPVPWVAGMAEESHRLIREEALRHLRAGKWVVALGGDHSVTHPLVQAHREALGDFSLLHVDAHADLYPEWQGSVYSHASPFYRLLTEGFPLVQVGIRAMDRDSLRLARKKGVALFPAHRIHREGLPLDEILRALGKRVYISLDFDALDPSLMPSVGTPLPGGLSYRQVVDLLEAVFREKEVVGMDFVELSPNGQFHAEMTAAQLVYHAIGLKGLQAGWLSREVDHI
notes: gene amplified from HB8 genomic DNA, pET21b (pET21speBHis, NdeI/HindIII), His-tagged, tag not reported cut, E. coli BL21(DE3), heat step 70 °C, Ni-NTA
In the case of B1, the Km is reported as 171 µM.
